Patent US20240425587A1 (Alector, published 2024)
Where a chain is given by its changes, count along the chain named. Numbers in names are those of the source.

B1: C1 (antibody, V domains shown)
VH: QIQLVQSGPELKKPGETVKISCKASGYTFTTYGMSWVKQAPGKGLKWMGWINTYSGVPTYADDFQGRFAFSLETSASTAYLQINNLKNEDTAPYFCVRDGYAAPYWGQGTLVTVSA
VL: NIMMTQSPSSLAVSAGEKVTMRCKSSQSVLYSSNQKNYLAWYQQKPGQSPKLLIYWASTRESGVPDRFTGSGSGTDFTLTISSVQAEDLAVYYCHQYLSSWTFGGGTKLEIK
notes: first hybridoma campaign
B2: E13 (antibody, V domains shown)
VH: QVQLQQPGAELVMPGASVKLSCKASGYTFTRYWIHWVRQRPGQGLEWIGEIDPSDSYTNHNQKFKDKATLTVDKSSSTAYMQLSSLTSEDSAVYFCANSNYDYWGQGTTLTVSS
VL: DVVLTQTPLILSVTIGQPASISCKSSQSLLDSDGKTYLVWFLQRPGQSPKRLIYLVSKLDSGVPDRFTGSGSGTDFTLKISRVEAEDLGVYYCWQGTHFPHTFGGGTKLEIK
notes: first hybridoma campaign
B3: C2 (antibody, V domains shown)
VH: QVQLQQSGAELVRPGASVTLSCKAAGYTFADYEMHWVRQTPVLGLEWIGAIDSEPGRTVYNQKFKSKAILTADKSSSTAYMELRSLTSDDSAVYYCTRRGAFYTNYDFFDYWGQGTTLTVSS
VL: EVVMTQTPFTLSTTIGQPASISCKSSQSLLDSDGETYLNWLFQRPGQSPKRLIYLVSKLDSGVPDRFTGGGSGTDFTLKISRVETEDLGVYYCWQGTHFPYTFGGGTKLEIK
notes: first hybridoma campaign
B4: C8 (antibody, V domains shown)
VH: EVQLQQSGADLVKSGASVKLSCTASGFNIKDYYIHWVKQRTAQGLEWIGRITPEDGETEYAPTFQVKATITADTSSNTAYLQLNSLTSEDTAVYYCSLGDYDVSPFAYWGQGTLVTVSA
VL: DIQMTQSPASQSASLGESVTITCLASQTIGTWLAWYQQKPGKSPQLLIYAATSLADGVPSRFSGSGSGTKFSFKISSLQAEDFVSYYCQQLYSTPYTFGGGTKLEIK
notes: first hybridoma campaign
B5: C7 (antibody, V domains shown)
VH: QVQLQQSGAELARPGTSVKLSCKASGYIFTDYAISWVKQRTGQGLQWIGEIYPGSDNAYYNENFKGKATLTADKSSNTAYMELRSLTSEDSAVYFCAKWAGSLFDFWGQGTALTVSS
VL: DIVMTQSQKFMSTSVGDRVSVTCKASRNVGFNVAWYQQNPGQSPKALIYSASYRYSGVPDRFTGSGSGTDFTLTISDVQSEDLAEYFCHQYNSYPYTFGGGTKLEIR
notes: first hybridoma campaign
B6: hPA-002 (antibody, V domains shown)
VH: QVTLQESGPGILQPSQTLSLTCSFSGFSLSTFGMGVGWIRQPSGKGLEWLAHIWWDDDKYYNPALKSRLTISKDTSKNQVFLKIASVDTADIATYYCARVEDYGNPFDYWGQGTTL
VL: DIQMNQSPSSLSASLGDTITITCHASQNIHVWLNWYQQKPGNIPKLLIYKASNLHTGVPSRFSGSGSGTGFTVTISSLQPEDIATYYCQQGQSYPLTFGAGTKLELK
B7: B1 (hIgG4 isotype) (antibody, V domains shown)
VH: DVKLVESGGGLVKLGGSLKLSCAASGFTFSSYYMSWVRQTPEKRLEWVAAINSNGDRSYYPDTVKGRFTISRDNAKNTLYLQMSSLKSEDTAFYYCASHGNYYGSPWFAYWGQGTLVTVSA
VL: ETTVTQSPASLSVATGEKVTIRCKTSTDIDDDMNWYQQKPGEPPKLLISEGNTLRPGVPSRFSSSGYGTDFVFTIENTLSEDVADYYCLQNDHMPLTFGGGTKLEIK
B8: hPA-002 (hIgG4 isotype) (antibody, V domains shown)
VH: B6 VH
VL: B6 VL
B9: A16 (hIgG4 isotype) (antibody, V domains shown)
VH: QVQLVQSGAEVKKPGSSVKVSCKASGYNFLNYDVNWVRQAPGQGLEWMGGIIPIFGTANYAQKFQGRVTITADESTSTAYMELSSLRSEDTAVYYCATGVGAGWFDPWGQGTLVTVSS
VL: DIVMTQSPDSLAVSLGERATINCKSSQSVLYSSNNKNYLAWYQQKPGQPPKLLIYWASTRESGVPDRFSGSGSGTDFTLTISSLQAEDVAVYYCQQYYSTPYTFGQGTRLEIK
B10: B3 (hIgG4 isotype) (antibody, V domains shown)
VH: EVKLVESGGGLVKPGGSLKLSCTASGFTFSNYAMSWVRQTPEKRLEWVASISGGGSTYYPDSVKGRFTIAIDYARNILYLQMSSLRSEDTAIYFCTRGVSYGDYAMDYWGQGTSVTVSS
VL: ETTVTQSPASLSMAIGEKVTIRCVTSTDIDDDMNWYQQKPGGPPKLLISEGNTLRPGVPSRFSSSGYGSDFVFTIEDMLSEDVADYYCLQSDNLPLTFGAGTKVELK
B11: E12 (antibody, V domains shown)
VH: QVQLQQSGAELAKPGASVKLSCKASGYTFTSYWIHWVKQRPGQGLEWIGYINPSSGDTEYNQKFKDKATLTADKSSNTAYMQLSSLTYEDSAVYYCARSAPDDGYYDYAMDYWGQGTSVTVSS
VL: B5 VL with Q8R, R27Q, F31S, N39K, A46G, I48T, D77N, H89Q, R107K
notes: B-cell cloning campaign (mice)

Each binder was assayed against T1, human PILRA, G78 variant, ectopically expressed on 293 cells (human, UniProt Q9UKJ1 20-303) (assay: flow cytometry, MFI relative to 293 parental cells).
T1 construct: the cells are labelled G78; also called hA G78 OE; hA
T1 sequence (Q9UKJ1 other isoform, or with tags, fused parts or gaps mutant): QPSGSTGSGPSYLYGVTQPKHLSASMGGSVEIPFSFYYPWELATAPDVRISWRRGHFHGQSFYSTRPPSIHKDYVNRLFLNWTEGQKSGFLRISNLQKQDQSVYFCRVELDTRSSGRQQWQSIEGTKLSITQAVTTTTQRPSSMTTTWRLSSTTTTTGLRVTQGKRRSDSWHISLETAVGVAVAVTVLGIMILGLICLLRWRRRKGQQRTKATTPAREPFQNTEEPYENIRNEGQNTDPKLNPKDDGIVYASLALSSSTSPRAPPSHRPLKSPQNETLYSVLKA
Experimental: (§1) Briefly, conditioned media containing antibodies were incubated with 293 cells for 30 min at 4° C., washed twice, and then detected with anti-mouse IgG Alexa 647.

Row | MFIr | Binder
1 | 113 | B1
2 | 36.1 | B2
3 | 102 | B3
4 | 44.2 | B4
5 | 202 | B5

What follows are binders tested against T2, human PILRB, ectopically expressed on 293 cells (human, UniProt Q9UKJ0 20-227) (assay: flow cytometry, MFI relative to 293 parental cells).
T2 construct: also called hB
T2 sequence (Q9UKJ0 20-227): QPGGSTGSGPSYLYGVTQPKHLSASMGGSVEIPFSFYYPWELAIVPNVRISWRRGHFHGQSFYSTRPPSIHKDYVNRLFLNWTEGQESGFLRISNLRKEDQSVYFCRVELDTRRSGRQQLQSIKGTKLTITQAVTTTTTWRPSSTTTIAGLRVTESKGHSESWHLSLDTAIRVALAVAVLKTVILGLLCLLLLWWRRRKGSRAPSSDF
Experimental: as §1

Row | MFIr | Binder
6 | 1.2 | B1
7 | 1.1 | B2
8 | 1.1 | B3
9 | 1.2 | B4
10 | 1.2 | B5

These binders were tested against T3, murine PILRA, ectopically expressed on 293 cells (murine, UniProt Q2YFS3 32-302) (assay: flow cytometry, MFI relative to 293 parental cells).
T3 construct: also called mA
T3 sequence (Q2YFS3 32-302): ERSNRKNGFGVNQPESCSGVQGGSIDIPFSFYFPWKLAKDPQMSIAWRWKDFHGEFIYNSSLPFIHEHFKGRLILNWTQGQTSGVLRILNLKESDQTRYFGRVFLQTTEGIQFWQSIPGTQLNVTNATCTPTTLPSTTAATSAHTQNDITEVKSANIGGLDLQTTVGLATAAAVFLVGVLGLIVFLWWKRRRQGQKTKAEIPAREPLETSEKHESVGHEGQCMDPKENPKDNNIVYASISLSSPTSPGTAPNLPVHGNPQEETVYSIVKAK
Experimental: as §1

Row | MFIr | Binder
11 | 0.8 | B1
12 | 1 | B2
13 | 0.9 | B3
14 | 0.9 | B4
15 | 0.3 | B5

These binders were tested against T4, cynomolgus PILRA, ectopically expressed on 293 cells (cynomolgus monkey) (assay: flow cytometry, MFI relative to 293 parental cells).
T4 sequence (chain, as listed by the source): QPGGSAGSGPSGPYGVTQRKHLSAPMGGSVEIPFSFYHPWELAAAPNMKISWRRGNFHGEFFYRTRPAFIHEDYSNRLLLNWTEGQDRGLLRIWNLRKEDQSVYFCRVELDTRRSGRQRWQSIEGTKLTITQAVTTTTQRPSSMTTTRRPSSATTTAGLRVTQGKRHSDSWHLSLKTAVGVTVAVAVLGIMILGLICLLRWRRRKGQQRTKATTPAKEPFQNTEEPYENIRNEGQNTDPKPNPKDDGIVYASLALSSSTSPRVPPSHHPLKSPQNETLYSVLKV
Experimental: as §1

Row | MFIr | Binder
16 | 70.5 | B1
17 | 0.8 | B2
18 | 2.7 | B3
19 | 0.8 | B4
20 | 0.3 | B5

These binders were tested against T5, murine PILRB, ectopically expressed on 293 cells (murine, UniProt Q2YFS2 29-224) (assay: flow cytometry, MFI relative to 293 parental cells).
T5 construct: whole, on cells; also called mB
T5 sequence (Q2YFS2 29-224): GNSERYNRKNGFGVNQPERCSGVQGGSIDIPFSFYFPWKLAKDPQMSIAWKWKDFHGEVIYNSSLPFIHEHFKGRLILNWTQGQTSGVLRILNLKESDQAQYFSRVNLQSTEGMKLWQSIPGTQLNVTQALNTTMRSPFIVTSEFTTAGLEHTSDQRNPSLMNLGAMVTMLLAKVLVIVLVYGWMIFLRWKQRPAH
Experimental: as §1

Row | MFIr | Binder
21 | 0.8 | B1
22 | 0.8 | B2
23 | 0.8 | B3
24 | 0.8 | B4
25 | 0.3 | B5

What follows are binders tested against T6, PILRA Fc (soluble human PILRA) (human, UniProt Q9UKJ1 20-197, limits assumed) (assay: flow cytometry; PILRA Fc binding to human CD3+ T cells with antibody, relative to PILRA Fc alone).
T6 construct: also called soluble PILRA; not shown: Fc part, detected with anti-human IgG
T6 sequence (Q9UKJ1 20-197 limits assumed): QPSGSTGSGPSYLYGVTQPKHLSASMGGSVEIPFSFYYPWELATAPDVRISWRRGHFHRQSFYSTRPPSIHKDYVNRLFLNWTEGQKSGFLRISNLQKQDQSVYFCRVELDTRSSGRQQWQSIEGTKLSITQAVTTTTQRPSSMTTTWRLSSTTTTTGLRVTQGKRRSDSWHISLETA
Experimental: (§2) The ability of conditioned media samples containing antibodies to inhibit the binding of PILRA Fc to human CD3+ T cells was assessed. Briefly, conditioned media samples containing antibodies were incubated with 1.25 ug/ml PILRA Fc for 30 min at 4° C. and then added to human T cells. After 30 minutes incubation at 4° C., cells were washed, and bound PILRA Fc was detected with anti-human IgG Alexa 647. Cells were analyzed by flow cytometry on FACS Canto II, and for all cell lines, the amount of PILRA Fc binding (MIFI) and the percentage of PILRA Fc binding in the presence of conditioned media relative to PILRA Fc binding alone was calculated. Several antibodies inhibited binding of PILRA Fc to human T cells, and a few antibodies enhanced PILRA-Fc binding to T cells. Antibodies that show enhancement in this assay may block cis inhibition to promote trans interactions or may allosterically activate to enhance trans interactions without blocking cis.

Row | % Binding | Binder
26 | 60% | B1
27 | 82% | B2
28 | 66.2% | B3
29 | 33.2% | B4
30 | 8.1% | B5

These binders were tested against T1, human PILRA, G78 variant, ectopically … (assay: flow cytometry; NPDC1-mIgGa binding to 293 cells expressing human PILRA G78 with antibody, relative to NPDC1 Fc alone).
Experimental: Conditioned media samples containing antibodies (10 ug/ml) were assessed for modulating the binding of Neural Proliferation Differentiation and Control Protein 1 (NPDC1) Fc to 293 cells ectopically expressing human PILRA. Briefly, conditioned media samples containing antibodies were incubated with 293 cells expressing human PILRA for 30 minutes at 4° C., and then 5 μg/ml NPDC1 Fc was added to this mixture. Where the antibodies were generated from phage panning, a NPDC1-hIgG1 ligand was used. Where the antibodies were generated from hybridomas, a NPDC1-mIgGa ligand was used. After 30 minutes incubation at 4° C., cells were washed and cell-bound NPDC1 Fc was detected with anti-human or mouse IgG Alexa 647. Cells were analyzed by flow cytometry on FACS Canto II, and for all cell lines, the percentage of NPDC1 Fc binding in the presence of conditioned media relative to NPDC1 Fc binding alone was calculated. Several antibodies decreased binding of NPDC1 to human PILRA, and a few antibodies enhanced ligand binding to human PILRA. Antibodies that show enhancement in this assay may block cis inhibition to promote trans interactions or may allosterically activate to enhance trans interactions without blocking cis.

Row | % Binding | Binder
31 | 158% | B1
32 | 110% | B2
33 | 177% | B3
34 | 69.7% | B4
35 | 35.9% | B5

Each binder was assayed against T6, PILRA Fc (soluble human PILRA) (assay: flow cytometry blocking assay, graph 'V1 Blocking_CD3+T Donor 906': antibody mixed with PILRA-Fc, then human CD3+ T cells; bound PILRA-Fc detected with AF647 2nd Ab; blocked partner: PILRA ligand on the T cells).
Experimental: as §2

Row | IC50 (read off the curve) | Binder
36 | ~1 µg/mL | B6

What follows are binders tested against human PILRA on the surface of primary human macrophages or monocytes (human, UniProt Q9UKJ1 20-303) (assay: cell-based or functional assay).
Chain of human PILRA on the surface of primary human macrophages or monocytes (Q9UKJ1 20-303): as the sequence (Q9UKJ1 other isoform, or with tags, fused parts or gaps mutant) above, with G59R counted along it

Row | hPILRA downregulation EC50 | Binder
37 | 0.009 µg/mL | B7
38 | 0.48 µg/mL | B8
39 | 0.4 µg/mL | B9
40 | 0.006 µg/mL | B10

The binders below were run against T1, human PILRA, G78 variant, ectopically … (assay: flow cytometry, 293 cells expressing target).
Experimental: as §1

Row | EC50 | Binder
41 | 31 µg/mL | B11

These binders were tested against T2, human PILRB, ectopically expressed on … (assay: flow cytometry, 293 cells expressing target).
Experimental: as §1

Row | binding result | Binder
42 | no binding | B11

These binders were tested against T3, murine PILRA, ectopically expressed on … (assay: flow cytometry, 293 cells expressing target).
Experimental: as §1

Row | binding result | Binder
43 | no binding | B11

These binders were tested against T4, cynomolgus PILRA, ectopically expressed … (assay: flow cytometry, 293 cells expressing target).
Experimental: as §1

Row | binding result | Binder
44 | no binding | B11

What follows are binders tested against T5, murine PILRB, ectopically expressed on … (assay: flow cytometry, 293 cells expressing target).
Experimental: as §1

Row | binding result | Binder
45 | no binding | B11

These binders were tested against T6, PILRA Fc (soluble human PILRA) (assay: flow cytometry; blocking of PILRA Fc binding to human CD3+ T cells (Donor 1019)).
Experimental: as §2

Row | IC50 | Binder
46 | 2.2 µg/mL | B11

The binders below were run against T7, human PILRA, c-term His-Avi tag (human, UniProt Q9UKJ1 20-197, limits assumed) (assay: SPR (Biacore), antibody captured, PILRA as analyte).
T7 construct: not shown: C-terminal His-Avi tag
T7 sequence (Q9UKJ1 20-197 limits assumed): as the sequence (Q9UKJ1 20-197 limits assumed) above
How it was run: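 Antibodies were captured at 10 μg/ml on an anti-huFc or anti-msFc CM5 surface, and human PILRA was flowed at 33, 100 and 300 nM in HBSTE/0.5% BSA, pH 7.4. The surface was regenerated with 10 mM glycine-HCl, pH 2.1, after each analyte. Curves were double-referenced with buffer injections.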

Row | Kd | koff | kon | t½ | Binder
47 | 45 nM | 0.0037 s⁻¹ | 81000 M⁻¹ s⁻¹ | 3.2 min | B1
48 | 10.5 nM | 0.0036 s⁻¹ | 340000 M⁻¹ s⁻¹ | 3.3 min | B2
49 | 23.4 nM | 0.0052 s⁻¹ | 220000 M⁻¹ s⁻¹ | 2.2 min | B6
50 | 2.2 nM | 0.0038 s⁻¹ | 1.7e+06 M⁻¹ s⁻¹ | 3.1 min | B3
51 | 65.6 nM | 0.0012 s⁻¹ | 18000 M⁻¹ s⁻¹ | 9.6 min | B11
